Data: article PMC6677171, “Subunit interactions and arrangements in the fission yeast Mis16–Mis18–Mis19 complex” (Life Science Alliance, 2019)

B1: Mis19: S. pombe Mis18 partner protein (protein)
chain: MDLMPLEKARAIEIAFDNVFHNTKIPDNLQQFDAILKRLERRRFIPTENQKPRVYETELLVLRFREFGVKDNHNHPINLHSLRSKSLIRAQGKKLDLHNRVFLRRNVRAVKM
B2: Mis19C: Mis19 truncation including sites A, B, and C, residues 52–112 (protein)
chain: PRVYETELLVLRFREFGVKDNHNHPINLHSLRSKSLIRAQGKKLDLHNRVFLRRNVRAVKM

What was measured:
Cnp1–H4 = test: Pull-down competition with full-length histones Cnp1–H4 (histone octamers); format: binding, S. pombe; conditions: incubation with Cnp1–H4–H2A–H2B octamers (molar excess); 25 mM Tris–HCl, pH 7.5, 500 mM NaCl, 5% glycerol, 1 mM TCEP, at least 1 h at 4°C; SDS–PAGE
Protocol: We were unable to purify these directly as recombinant proteins, probably because of the lack of a suitable chaperone. […] As free Mis19 is extremely unstable, we tested if preformed Mis16–Mis19 dimers (full-length and N-terminally truncated, see sections below) could also interact with H4–Cnp1 by incubating them in a large molar excess of histone octamer.
All proteins were expressed in insect cells using standard procedures. Genes were codon-optimised in all cases (GeneArt). Single protein constructs were cloned in pFastBac vectors (Invitrogen), whereas multi-protein complexes were cloned using the MultiBac system ([Fitzgerald et al, 2006]). The Mis16 protein carried a TEV protease-cleavable double-Strep-Tactin tag at the N terminus for purification purposes. All clones were sequence verified. Baculoviruses were generated and amplified using Sf21 cells, infected in Hi5 cells, and then further incubated at 27°C for 48 h. Harvested cells were lysed by sonication in buffer A containing 50 mM Tris–HCl, pH 7.5, 150 mM NaCl, 0.5 mM TCEP, benzonase nuclease (3 units/1 × 10^6 cells), 10% glycerol, and protease inhibitors cocktail set III (Calbiochem). […]
All in vitro pull-down assays were performed using purified proteins or protein complexes. […] Input and pull-down elution samples were analysed by SDS–PAGE.

Mis16 = molecular target: T1, Mis16 (Schizosaccharomyces pombe, UniProt O94244); test: Co-expression and affinity pull-down/size-exclusion co-purification of Mis19 deletions with Mis16; format: binding, S. pombe; conditions: co-expressed in insect cells, Strep-Tactin tag on Mis16, gel filtration, SDS–PAGE band
T1 construct: double-Strep-Tactin tag (TEV protease-cleavable) (N, cleaved yes); made in house; host or cells: insect cells (baculovirus made in Sf21, expression in Hi5)
Excerpt: Figure 2. Mis16–Mis19 contact regions. (A) Crystal structure of Mis16–Mis19 highlighting the Mis19-binding sites. Three putative binding sites A, B, and C (lighter to darker orange from N terminus to C terminus) are indicated. (B) Schematic of the various deletion constructs of Mis19 are used for binding studies showing the positions of sites A, B, and C. (C) Constructs containing affinity-tagged Mis16 and the Mis19 deletions shown above were co-expressed and purified by affinity pull-down and size-exclusion chromatography. SDS–PAGE gel of peak fractions is shown. Asterisks indicate impurities. (D) Close-up of the A- and C-binding sites. The locations of the kis1-1 (R65) and eic1-1 (F102) t.s. mutant residues are shown.
The C-terminal interaction of Mis19 with Mis16 (site C in our nomenclature) has been previously described ([An et al, 2018]). […] To test the contribution of the individual sites to the Mis16–Mis19 interaction, various truncated Mis19 constructs were designed, for which site A, […], or both A and C are missing (Fig 2B). Full-length Mis16 and Mis19C (includes sites A, B, and C, residues 52–112), construct 1 (includes site B and C, residues 66–112), construct 2 (includes binding site B, residues 66–99), and construct 3 (includes site A and B, residues 52–99) were co-expressed in insect cells, as the isolated Mis19 truncations cannot be expressed and purified. […]

T1 sequence (O94244 whole entry): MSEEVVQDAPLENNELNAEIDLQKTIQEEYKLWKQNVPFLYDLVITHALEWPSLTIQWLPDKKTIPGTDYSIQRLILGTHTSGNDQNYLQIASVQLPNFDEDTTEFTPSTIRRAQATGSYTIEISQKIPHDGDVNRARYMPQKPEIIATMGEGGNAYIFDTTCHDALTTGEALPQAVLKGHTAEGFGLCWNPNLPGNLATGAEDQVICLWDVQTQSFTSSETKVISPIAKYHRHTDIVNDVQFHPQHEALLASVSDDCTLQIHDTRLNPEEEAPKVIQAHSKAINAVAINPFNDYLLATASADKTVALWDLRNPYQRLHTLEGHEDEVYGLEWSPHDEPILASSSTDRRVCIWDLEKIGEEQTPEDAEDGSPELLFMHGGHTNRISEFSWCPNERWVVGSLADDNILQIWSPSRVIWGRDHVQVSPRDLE

| Molecule | interaction with Cnp1–H4 / histone transfer (Cnp1–H4) | association with Mis16 (Mis16) |
| --- | --- | --- |
| B1 | completely inhibits histone transfer to Mis16 | – |
| B2 | no histones can be transferred onto Strep-Mis16 | Mis19 is associated with Mis16 |
